Data from IntAct's records for PubMed 31515488.

B1: Protein FAM9B (Homo sapiens), Q8IZU0 (parent)
chain: MAAWGKKHAGKDPVRDECEERNRFTETREEDVTDEHGEREPFAETDEHTGANTKKPEDTAEDLTAKRKRMKMDKTCSKTKNKSKHALRKKQLKRQKRDYIHSLKLLNVLEEYITDEQKEEEEEEGEEEELIRIFQEQQKKWQQYRSVRRERLKEMKLLRDQFVKALEDFEDLCDRVFSDEDSELDN
partner: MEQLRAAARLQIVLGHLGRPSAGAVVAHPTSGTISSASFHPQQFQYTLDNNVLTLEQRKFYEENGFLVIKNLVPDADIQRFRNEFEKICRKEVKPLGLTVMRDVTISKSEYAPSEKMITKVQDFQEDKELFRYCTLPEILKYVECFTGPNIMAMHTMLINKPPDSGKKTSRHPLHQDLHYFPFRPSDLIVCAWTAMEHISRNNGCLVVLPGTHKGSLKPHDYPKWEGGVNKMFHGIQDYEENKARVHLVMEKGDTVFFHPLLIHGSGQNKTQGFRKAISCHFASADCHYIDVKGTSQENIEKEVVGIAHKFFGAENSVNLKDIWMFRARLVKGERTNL
B2: Cysteine-rich C-terminal protein 1 (Homo sapiens), Q9UGL9 (parent)
chain: MSSQQSAVSAKGFSKGSSQGPAPCPAPAPTPAPASSSSCCGSGRGCCGDSGCCGSSSTSCCCFPRRRRRQRSSGCCCCGGGSQRSQRSNNRSSGCCSGC
B3: Kinesin-like protein KIF20A (Homo sapiens), O95235 (parent)
chain: MSQGILSPPAGLLSDDDVVVSPMFESTAADLGSVVRKNLLSDCSVVSTSLEDKQQVPSEDSMEKVKVYLRVRPLLPSELERQEDQGCVRIENVETLVLQAPKDSFALKSNERGIGQATHRFTFSQIFGPEVGQASFFNLTVKEMVKDVLKGQNWLIYTYGVTNSGKTHTIQGTIKDGGILPRSLALIFNSLQGQLHPTPDLKPLLSNEVIWLDSKQIRQEEMKKLSLLNGGLQEEELSTSLKRSVYIESRIGTSTSFDSGIAGLSSISQCTSSSQLDETSHRWAQPDTAPLPVPANIRFSIWISFFEIYNELLYDLLEPPSQQRKRQTLRLCEDQNGNPYVKDLNWIHVQDAEEAWKLLKVGRKNQSFASTHLNQNSSRSHSIFSIRILHLQGEGDIVPKISELSLCDLAGSERCKDQKSGERLKEAGNINTSLHTLGRCIAALRQNQQNRSKQNLVPFRDSKLTRVFQGFFTGRGRSCMIVNVNPCASTYDETLHVAKFSAIASQLVHAPPMQLGFPSLHSFIKEHSLQVSPSLEKGAKADTGLDDDIENEADISMYGKEELLQVVEAMKTLLLKERQEKLQLEMHLRDEICNEMVEQMQQREQWCSEHLDTQKELLEEMYEEKLNILKESLTSFYQEEIQERDEKIEELEALLQEARQQSVAHQQSGSELALRRSQRLAASASTQQLQEVKAKLQQCKAELNSTTEELHKYQKMLEPPPSAKPFTIDVDKKLEEGQKNIRLLRTELQKLGESLQSAERACCHSTGAGKLRQALTTCDDILIKQDQTLAELQNNMVLVKLDLRKKAACIAEQYHTVLKLQGQVSAKKRLGTNQENQQPNQQPPGKKPFLRNLLPRTPTCQSSTDCSPYARILRSRRSPLLKSGPFGKKY
partner: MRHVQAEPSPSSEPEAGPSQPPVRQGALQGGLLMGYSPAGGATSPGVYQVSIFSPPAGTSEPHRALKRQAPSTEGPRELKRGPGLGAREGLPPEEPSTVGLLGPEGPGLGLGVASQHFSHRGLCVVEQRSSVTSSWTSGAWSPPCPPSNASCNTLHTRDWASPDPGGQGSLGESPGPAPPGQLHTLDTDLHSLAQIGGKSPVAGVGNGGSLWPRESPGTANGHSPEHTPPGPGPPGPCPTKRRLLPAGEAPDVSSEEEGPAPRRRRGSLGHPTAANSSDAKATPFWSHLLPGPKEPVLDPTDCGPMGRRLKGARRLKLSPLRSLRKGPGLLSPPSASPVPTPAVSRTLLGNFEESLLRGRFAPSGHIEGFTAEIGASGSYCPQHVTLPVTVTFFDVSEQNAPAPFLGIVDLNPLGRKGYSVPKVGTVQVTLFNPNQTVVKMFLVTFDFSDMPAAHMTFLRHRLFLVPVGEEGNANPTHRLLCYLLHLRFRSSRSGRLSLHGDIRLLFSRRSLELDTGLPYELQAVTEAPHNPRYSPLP
B4: Vacuolar protein sorting-associated protein 37B (Homo sapiens), Q9H9H4 (parent)
chain: MAGAGSEARFAGLSLVQLNELLEDEGQLTEMVQKMEETQNVQLNKEMTLASNRSLAEGNLLYQPQLDTLKARLTQKYQELQVLFEAYQIKKTKLDRQSSSASLETLLALLQAEGAKIEEDTENMAEKFLDGELPLDSFIDVYQSKRKLAHMRRVKIEKLQEMVLKGQRLPQALAPLPPRLPELAPTAPLPYPAPEASGPPAVAPRRIPPPPPPVPAGRLATPFTAAMSSGQAVPYPGLQCPPLPPRVGLPTQQGFSSQFVSPYPPPLPQRPPPRLPPHQPGFILQ
partner: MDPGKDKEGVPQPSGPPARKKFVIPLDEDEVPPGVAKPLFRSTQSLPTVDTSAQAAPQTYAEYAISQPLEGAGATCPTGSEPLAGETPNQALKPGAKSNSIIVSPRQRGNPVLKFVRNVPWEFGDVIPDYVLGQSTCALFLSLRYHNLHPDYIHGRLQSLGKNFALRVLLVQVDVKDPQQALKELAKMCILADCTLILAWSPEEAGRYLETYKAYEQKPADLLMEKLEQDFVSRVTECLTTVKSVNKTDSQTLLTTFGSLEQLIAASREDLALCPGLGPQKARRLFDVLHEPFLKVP
B5: Ubiquitin thioesterase OTUB2 (Homo sapiens), Q96DC9 (parent)
chain: MSETSFNLISEKCDILSILRDHPENRIYRRKIEELSKRFTAIRKTKGDGNCFYRALGYSYLESLLGKSREIFKFKERVLQTPNDLLAAGFEEHKFRNFFNAFYSVVELVEKDGSVSSLLKVFNDQSASDHIVQFLRLLTSAFIRNRADFFRHFIDEEMDIKDFCTHEVEPMATECDHIQITALSQALSIALQVEYVDEMDTALNHHVFPEAATPSVYLLYKTSHYNILYAADKH
partner: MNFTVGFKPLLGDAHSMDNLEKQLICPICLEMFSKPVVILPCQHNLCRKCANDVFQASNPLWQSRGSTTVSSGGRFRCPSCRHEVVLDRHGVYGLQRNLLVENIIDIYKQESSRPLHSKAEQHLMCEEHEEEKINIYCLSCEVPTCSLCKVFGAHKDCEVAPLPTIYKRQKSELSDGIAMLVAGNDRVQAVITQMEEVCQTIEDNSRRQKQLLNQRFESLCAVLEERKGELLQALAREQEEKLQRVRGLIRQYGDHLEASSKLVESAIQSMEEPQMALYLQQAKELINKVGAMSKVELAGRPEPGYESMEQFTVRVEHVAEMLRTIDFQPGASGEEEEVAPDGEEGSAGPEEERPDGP
B6: Transcription factor 12 (Homo sapiens), Q99081 (parent)
chain: MNPQQQRMAAIGTDKELSDLLDFSAMFSPPVNSGKTRPTTLGSSQFSGSGIDERGGTTSWGTSGQPSPSYDSSRGFTDSPHYSDHLNDSRLGAHEGLSPTPFMNSNLMGKTSERGSFSLYSRDTGLPGCQSSLLRQDLGLGSPAQLSSSGKPGTAYYSFSATSSRRRPLHDSAALDPLQAKKVRKVPPGLPSSVYAPSPNSDDFNRESPSYPSPKPPTSMFASTFFMQDGTHNSSDLWSSSNGMSQPGFGGILGTSTSHMSQSSSYGNLHSHDRLSYPPHSVSPTDINTSLPPMSSFHRGSTSSSPYVAASHTPPINGSDSILGTRGNAAGSSQTGDALGKALASIYSPDHTSSSFPSNPSTPVGSPSPLTGTSQWPRPGGQAPSSPSYENSLHSLQSRMEDRLDRLDDAIHVLRNHAVGPSTSLPAGHSDIHSLLGPSHNAPIGSLNSNYGGSSLVASSRSASMVGTHREDSVSLNGNHSVLSSTVTTSSTDLNHKTQENYRGGLQSQSGTVVTTEIKTENKEKDENLHEPPSSDDMKSDDESSQKDIKVSSRGRTSSTNEDEDLNPEQKIEREKERRMANNARERLRVRDINEAFKELGRMCQLHLKSEKPQTKLLILHQAVAVILSLEQQVRERNLNPKAACLKRREEEKVSAVSAEPPTTLPGTHPGLSETTNPMGHM
partner: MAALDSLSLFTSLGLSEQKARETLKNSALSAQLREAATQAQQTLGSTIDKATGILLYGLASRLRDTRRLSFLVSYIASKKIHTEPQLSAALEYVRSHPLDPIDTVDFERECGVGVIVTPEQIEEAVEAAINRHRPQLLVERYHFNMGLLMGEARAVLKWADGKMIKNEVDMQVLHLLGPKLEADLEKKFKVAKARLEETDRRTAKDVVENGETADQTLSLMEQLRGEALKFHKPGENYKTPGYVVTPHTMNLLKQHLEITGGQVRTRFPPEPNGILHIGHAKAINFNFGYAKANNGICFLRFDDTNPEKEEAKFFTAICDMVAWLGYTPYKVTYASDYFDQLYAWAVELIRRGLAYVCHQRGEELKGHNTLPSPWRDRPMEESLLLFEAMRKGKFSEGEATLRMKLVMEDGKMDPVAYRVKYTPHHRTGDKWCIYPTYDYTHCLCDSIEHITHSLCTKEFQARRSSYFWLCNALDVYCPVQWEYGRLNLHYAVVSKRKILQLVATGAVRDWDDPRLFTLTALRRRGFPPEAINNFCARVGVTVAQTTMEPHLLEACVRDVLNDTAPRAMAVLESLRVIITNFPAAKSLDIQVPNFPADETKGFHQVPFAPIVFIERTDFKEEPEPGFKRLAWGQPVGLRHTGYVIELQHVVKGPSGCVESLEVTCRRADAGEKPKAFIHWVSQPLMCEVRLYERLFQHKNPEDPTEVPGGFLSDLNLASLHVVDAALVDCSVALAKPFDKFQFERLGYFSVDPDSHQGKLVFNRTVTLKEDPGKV

Variants of: B1
Settings: with pahx_human PHYH

Row | effect of a mutation on the interaction | Variant
1 | with no effect | R23H

Variants of: B2
Settings: with nt2na_human NOTCH2NLA

Row | effect of a mutation on the interaction | Variant
2 | with no effect | G20S

Variants of: B3
Settings: with atosb_human ATOSB

Row | effect of a mutation on the interaction | Variant
3 | disrupting interaction strength | S44F

Variants of: B4
Settings: with ercc1_human ERCC1, P07992

Row | effect of a mutation on the interaction | Variant
4 | with no effect | M151I

Variants of: B5
Settings: with tri54_human TRIM54, Q9BYV2

Row | effect of a mutation on the interaction | Variant
5 | with no effect | V78I
6 | disrupting interaction strength | R146P

Variants of: B6
Settings: with syq_human QARS1, P47897

Row | effect of a mutation on the interaction | Variant
7 | with no effect | A458V
8 | with no effect | D565V
9 | with no effect | I11M
10 | with no effect | G300S
11 | with no effect | L483R
